Results from patent US20040018971A1 (published 2004).
Like-named read-outs stand apart in the source and are kept apart here.

Key:
HLA-DRB1*0301 [1] = molecular target: T1, HLA-DRB1*0301 (human); experiment: competition with 125I-labelled standard peptide, purified HLA-DR, gel filtration
T1 construct: purified MHC class II molecule; also called DR3

HLA-DRB1*0301 [2] = molecular target: T1, HLA-DRB1*0301; experiment: as above; remark: listed apart in the source
HLA-DRB5*0101 = molecular target: T2, HLA-DRB5*0101 (human); experiment: as above
T2 construct: purified MHC class II molecule; also called DR2w2β2

HLA-DRB1*1501 = molecular target: T3, HLA-DRB1*1501 (human); experiment: as above
T3 construct: purified MHC class II molecule; also called DR2w2β1

HLA-DRB1*0401 = molecular target: T4, HLA-DRB1*0401 (human); experiment: as above
T4 construct: purified MHC class II molecule; also called DR4w4

HLA-DRB1*0101 = molecular target: T5, HLA-DRB1*0101 (human); experiment: as above
T5 construct: purified MHC class II molecule; also called DR1

HLA-DRB1*1302 = molecular target: T6, HLA-DRB1*1302 (human); experiment: as above
T6 construct: purified MHC class II molecule; also called DR6w19

HLA-DRB1*0802 = molecular target: T7, HLA-DRB1*0802 (human); experiment: as above
T7 construct: purified MHC class II molecule; also called DR8w2

[3] = molecular target: T8, HLA-A*0201 (purified HLA class I molecule) (human); experiment: competition with 125I-labelled standard peptide for purified HLA, gel filtration
T8 construct: also called HLA-A2.1

[4] = molecular target: HLA-A*0203 (purified HLA class I molecule) (human); experiment: as above
[5] = molecular target: HLA-A*6802 (purified HLA class I molecule) (human); experiment: as above
[6] = molecular target: HLA-A*0206 (purified HLA class I molecule) (human); experiment: as above
[7] = molecular target: HLA-A*0202 (purified HLA class I molecule) (human); experiment: as above
[8] = molecular target: HLA-A*3301 (purified HLA class I molecule) (human); experiment: inhibition of 125I probe peptide binding to purified HLA; ratio to standard peptide; minus sign not explained
[9] = molecular target: T9, HLA-A*0301 (purified HLA class I molecule) (human); experiment: inhibition of 125I probe peptide binding to purified HLA; ratio to standard peptide
T9 construct: also called A3

[10] = molecular target: HLA-A*3101 (purified HLA class I molecule) (human); experiment: as above
[11] = molecular target: HLA-A*1101 (purified HLA class I molecule) (human); experiment: as above
[12] = molecular target: HLA-A*6801 (purified HLA class I molecule) (human); experiment: as above
HLA-A*6801 = molecular target: T10, HLA-A*6801 (human); experiment: competition with 125I-labelled standard peptide for purified HLA, gel filtration
T10 construct: The construct is not described

HLA-A*1101 = molecular target: T11, HLA-A*1101 (human); experiment: as above
T11 construct: The construct is not described

HLA-A*3101 = molecular target: T12, HLA-A*3101 (human); experiment: as above
T12 construct: The construct is not described

HLA-A*3301 = molecular target: T13, HLA-A*3301 (human); experiment: as above
T13 construct: The construct is not described

HLA-A*0301 = molecular target: T14, HLA-A*0301 (human); experiment: as above
T14 construct: also called A3

HLA-DR3 = HLA-DR3 (human); experiment: competitive inhibition of 125I-labeled probe peptide binding to purified HLA-DR3

B1: Her2/neu.867 (peptide)
peptide: ARLLDIDETEYHADG
- IC50 (HLA-DRB1*0301 [1]): 968 nM
- IC50 (HLA-DRB1*0301 [2]): 968 nM

B2: Her2/neu.769 (peptide)
peptide: DEAYVMAGVGSPYVS
- IC50 (HLA-DRB5*0101): 833 nM
- IC50 (HLA-DRB1*1501): 3140 nM
- IC50 (HLA-DRB1*0401): 196 nM
- IC50 (HLA-DRB1*0101): 100 nM
- IC50 (HLA-DRB1*1302): 1750 nM
- IC50 (HLA-DRB1*0802): 860 nM

B3: HER2/neu peptide, position 799, 9 amino acids (peptide)
peptide: QLMPYGCLL
notes: Synthetic peptide; also called Her2/neu.799
- relative binding ratio (IC50 of standard peptide / IC50 of test peptide) [3]: 0.023 ratio
- relative binding ratio (IC50 of standard peptide / IC50 of test peptide) [4]: 0.088 ratio
- relative binding ratio (IC50 of standard peptide / IC50 of test peptide) [5]: 0.0031 ratio
- relative binding ratio (IC50 of standard peptide / IC50 of test peptide) [6]: 0.0052 ratio
- relative binding ratio (IC50 of standard peptide / IC50 of test peptide) [7]: 0.0044 ratio

B4: HER2/neu peptide, position 727, 10 amino acids (peptide)
peptide: GSGAFGTVYK
notes: also called Her2/neu.727 (10-mer)
- relative binding ratio [8]: -0.0013 ratio (IC50 standard / IC50 test)
- relative binding ratio [9]: 0.066 ratio (IC50 standard / IC50 test)
- relative binding ratio [10]: 0.0014 ratio (IC50 standard / IC50 test)
- relative binding ratio [11]: 0.13 ratio (IC50 standard / IC50 test)
- relative binding ratio [12]: 0.0012 ratio (IC50 standard / IC50 test)

B5: HER2/neu peptide, position 322, 9 amino acids (peptide)
peptide: VTAEDGTQR
notes: Synthetic peptide; also called Her2/neu.322 (9-mer)
- relative binding ratio (HLA-A*6801): 0.1 ratio (IC50 of standard peptide / IC50 of test peptide)
- relative binding ratio (HLA-A*1101): 0.014 ratio (IC50 of standard peptide / IC50 of test peptide)
- relative binding ratio (HLA-A*3101): 0.0011 ratio (IC50 of standard peptide / IC50 of test peptide)
- relative binding ratio (HLA-A*3301): 0.0037 ratio (IC50 of standard peptide / IC50 of test peptide)
- relative binding ratio (HLA-A*0301): 0.0002 ratio (IC50 of standard peptide / IC50 of test peptide)

B6: Her2/neu.867 (peptide)
peptide: ARLLDIDETEYHADG
- IC50 (HLA-DR3): < 1000 nM
